Seven molecules from PMC5557857 (2017) can be followed below.

Usually Kd stands for the equilibrium constant for the complex coming apart.

Experiment [1] deals with epidermal growth factor receptor 2 (HER2) expressed on SKOV3 cells (human (endogenous in SKOV3)) (UniProt P04626). The experiment is described as follows: split reporter (BiFC, NanoBiT); TEC screen: HER2-expressing SKOV3 cells incubated 1 hr at ambient temperature with clarified lysates of one β9 fusion and one β10 fusion (PBS + 1% BSA), washed 3 times, luminescence 30 min after Δ11S lysate (1:20) and Nano-Glo substrate; signal-to-background, average of three days.

The target in another experiment is T1, β10 peptide (synthetic) (Oplophorus gracilirostris, Synthetic 11-mer. The sequence is only in Table S1, so the high-affinity NanoBiT peptide 86 (HiBiT-type) variant of strand 10 is assumed. Termini are not stated.).
T1 chain: VSGWRLFKKIS
Description: luminescence complementation, 10 uM Nano-Glo substrate.

For the molecule “β9-G3 (DARPin G3 with β9 at the N-terminus) (designed binder)”, in experiment [1], the TEC signal-to-background with 9.29-β10 worked out at 122 and the TEC signal-to-background with 73JH-β10 worked out at 219.

With “9.29-β10 (DARPin 9.29 with β10 at the C-terminus) (designed binder)”, in experiment [1], the TEC signal-to-background with PertH-β9 turned out to be 346, the TEC signal-to-background with β9-G3 was found to be 122, the TEC signal-to-background with β9-L73J was found to be 597 and the TEC signal-to-background with β9-LPert was determined as 265.

For the molecule “β9-9.29 (DARPin 9.29 with β9 at the N-terminus) (designed binder)”, in experiment [1], the TEC signal-to-background with PertH-β10 stood at 671 and the TEC signal-to-background with β10-L73J was determined as 173.

“β10-G3 (DARPin G3 with β10 at the N-terminus) (designed binder)”: the TEC signal-to-background with β9-L73J in experiment [1] was 197.

Consider “G3-β9 (DARPin G3 with β9 at the C-terminus) (designed binder)”, for which, in experiment [1], the TEC signal-to-background with PertH-β10 came to 122 and the TEC signal-to-background with β10-L73J amounted to 126.

For the molecule “G3-β10 (DARPin G3 with β10 at the C-terminus) (designed binder)”, in experiment [1], the TEC signal-to-background with PertH-β9 turned out to be 103, the TEC signal-to-background with β9-L73J came out at 1360 and the TEC signal-to-background with β9-LPert is 353.

B1: 11S (beta-strands 1-9 of NanoLuc, main fragment of NanoBiT) (domain or fragment)
chain: MVFTLEDFVGDWEQTAAYNLDQVLEQGGVSSLLQNLAVSVTPIQRIVRSGENALKIDIHVIIPYEGLSADQMAQIEEVFKVVYPVDDHHFKVILPYGTLVIDGVTPNMLNYFGRPYEGIAVFDGKKITVTGTLWNGNKIIDERLITPDGSMLFRVTINS
In turn, B1 gave a Kd with β10 peptide (synthetic) of 4 nM.
